Laboratory results reported in article PMC7335187 (2020).

What was measured:
Atg8 (1-116) K26P = molecular target: T1, Atg8 (1-116) K26P (S. cerevisiae, UniProt P38182 1-116, K26P); assay: ITC
T1 sequence: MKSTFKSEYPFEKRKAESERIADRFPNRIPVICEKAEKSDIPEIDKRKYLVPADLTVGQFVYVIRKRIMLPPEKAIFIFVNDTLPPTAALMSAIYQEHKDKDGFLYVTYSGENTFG

[1] = molecular target: GABARAP WT (human GABARAP 1-116) (human, UniProt O95166 1-116); assay: ITC
GABARAP WT (human GABARAP 1-116), sequence (O95166 1-116): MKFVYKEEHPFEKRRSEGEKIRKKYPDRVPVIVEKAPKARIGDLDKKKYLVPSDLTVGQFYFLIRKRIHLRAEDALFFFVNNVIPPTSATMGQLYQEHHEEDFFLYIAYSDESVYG

| Binder | Kd (Atg8 (1-116) K26P) [µM] | Kd [1] [µM] |
| --- | --- | --- |
| EFPNDYDFAEDILDET [Atg40^237–252 M245A peptide] | 21.7 |  |
| GPEEDTDTEEGDDFALLDQSALDQIESELY [FAM134B444-470 E456A E462A peptide] |  | 3.39 |
| GPEEDTDTEEGDDFELLDQSELDQIESELY [FAM134B444-470 WT peptide] |  | 0.14 |
| NDFEMITKY [SEC62361-368 (Δhelix) peptide] |  | 3.38 |
| GPHSSGNGNDFEMITKEELEQQTDY [SEC62355-376 WT peptide] |  | 0.19 |
| TSTEFPNDADFMEDILDET [Atg40 peptide Y242A] | 32.7 |  |
| DDFELLDQY [FAM134B453-460 (Δhelix) peptide] |  | 2.54 |
| TSTEAPNDYDFMEDILDET [Atg40 peptide F238A] | 4.31 |  |
